Assay results from patent US20250298034A1, “METHODS OF TREATING IMMUNOTHERAPY-ASSOCIATED ADVERSE EFFECTS” (NORTHWESTERN UNIVERSITY, priority 2022, published 2025).

Tested on: human peripheral monocyte differentiated M1 macrophages
Assay: In vitro sMIC induction of PDL1 expression on monocyte-derived macrophages (flow cytometry)
Format: cell-based
Details: recombinant sMIC added at day 7, cultured 2 days; FIG. 4E
Description: In vitro macrophage generation from peripheral monocytes: Human peripheral blood monocyte differentiation into macrophages. PBMCs from healthy donors were seeded at the density of 2×10^6 cells/well in a 24 well plate with pre-warmed monocyte attachment media (MAM, Promocell, Cat. No. c-28051) and incubate at 37° C. After 1.5 hr incubation, non-adherent cells were removed. Adherent cells were washed three times with pre-warmed MAM before cultured in macrophage differentiation media respectively, the M1 macrophage generating media (Promocell c-28055) or the M2 macrophage generating media (Promocell c-28056). After 5 days of culture, 50% of the media were replaced with fresh media. At day 7, recombinant sMIC (rsMICB, his-tagged, SinoBiologicals Cat. No 10759-H08H) or control vehicle PBS were added to the culture at indicated concentration. The culture was continued for 2 days before being harvested for analyses.

B1: sMIC: recombinant sMIC (rsMICB, his-tagged, SinoBiologicals Cat. No 10759-H08H) (protein, UniProt Q29980 23-383, looked up)
MHC class I …: AEPHSLRYNLMVLSQDGSVQSGFLAEGHLDGQPFLRYDRQKRRAKPQGQWAENVLGAKTWDTETEDLTENGQDLRRTLTHIKDQKGGLHSLQEIRVCEIHEDSSTRGSRHFYYDGELFLSQNLETQESTVPQSSRAQTLAMNVTNFWKEDAMKTKTHYRAMQADCLQKLQRYLKSGVAIRRTVPPMVNVTCSEVSEGNITVTCRASSFYPRNITLTWRQDGVSLSHNTQQWGDVLPDGNGTYQTWVATRIRQGEEQRFTCYMEHSGNHGTHPVPSGKALVLQSQRTDFPYVSAAMPCFVIIIILCVPCCKKKTSAAEGPELVSLQVLDQHPVGTGDHRDAAQLGFQPLMSATGSTGSTEGT
modifications: His-tag
B1 was tested, and the “PDL1 expression on M1 macrophages” value was “can induce PDL1 expression”.
